Measurements: patent US8993320B2, “Culture method to obtain and maintain a pure or enriched population of mammalian neural stem cells and/or neural/progenitor cells that are prone to differentiate into oligodendrocyte-lineage cells in vitro” (priority 2011, dated 2015)

Columns and labels:
[1] = tested on: HFSC cells; assay: Expansion of HFSC cells with growth factors and supplements (live cell count); format: cell-based, human; details: 10 ng/ml NT-3 added at passage 17; cell line #2b; effect disappeared after a passage
[2] = tested on: HFSC cells; assay: as above; format: cell-based, human; details: cell line #2b and cell line #3; same condition except for PDGF-AA
Protocol: FIG. 4 illustrates the expansion rate of HFSC cells (cell line #2b) in the presence of different combinations of growth factors: (1): 20 ng/ml PDGF-AA+10 ng/ml bFGF; (2): 20 ng/ml PDGF-AA+10 ng/ml bFGF+5 ng/ml NT-3; (3): 20 ng/ml PDGF-AA+10 ng/ml bFGF+10 ng/ml IGF-1; (4): 20 ng/ml PDGF-AA+10 ng/ml bFGF+5 ng/ml NT-3+10 ng/ml IGF-1. The cells were harvested at day 11 of passage 3 (P3D11) and number of live cells in each condition was counted. Then, they were passaged in the same condition that was used at passage 3 at the same cell density. The cells were harvested at day 8 of passage 4 (P4D8) and number of live cells in each condition was counted (these cells were harvested before they became sub-confluent because they started forming spheres). […] Condition (3) was effective at both passages. […] The cells were harvested at day 7 of passage 5 (these cells were harvested before they became sub-confluent because they started forming spheres as they did at passage 4) and number of live cells in each condition was counted. […]

| Molecule | effect on cell growth [1] | expansion of cells when replacing PDGF-AA [2] |
| --- | --- | --- |
| neurotrophin-3 (protein, UniProt P20783 139-257, looked up, growth factor) Neurotrophin-3: YAEHKSHRGEYSVCDSESLWVTDKSSAIDIRGHQVTVLGEIKTGNSPVKQYFYETRCKEARPVKNGCRGIDDKHWNSQCKTSQTYVRALTSENNKLVGWRWIRIDTSCVCALSRKIGRT | enhanced the cell growth a little bit | – |
| PDGF-BB: PDGF family member used to replace PDGF-AA (protein, UniProt P01127 82-190, looked up) Platelet-derived growth …: SLGSLTIAEPAMIAECKTRTEVFEISRRLIDRTNANFLVWPPCVEVQRCSGCCNNRNVQCRPTQVQLRPVQVRKIEIVRKKPIFKKATVTLEDHLACKCETVAAARPVT | – | could expand both cell lines |
